For one test, the target named is T1, GST-HEF1 (human, UniProt Q14511 1-834).
T1 sequence: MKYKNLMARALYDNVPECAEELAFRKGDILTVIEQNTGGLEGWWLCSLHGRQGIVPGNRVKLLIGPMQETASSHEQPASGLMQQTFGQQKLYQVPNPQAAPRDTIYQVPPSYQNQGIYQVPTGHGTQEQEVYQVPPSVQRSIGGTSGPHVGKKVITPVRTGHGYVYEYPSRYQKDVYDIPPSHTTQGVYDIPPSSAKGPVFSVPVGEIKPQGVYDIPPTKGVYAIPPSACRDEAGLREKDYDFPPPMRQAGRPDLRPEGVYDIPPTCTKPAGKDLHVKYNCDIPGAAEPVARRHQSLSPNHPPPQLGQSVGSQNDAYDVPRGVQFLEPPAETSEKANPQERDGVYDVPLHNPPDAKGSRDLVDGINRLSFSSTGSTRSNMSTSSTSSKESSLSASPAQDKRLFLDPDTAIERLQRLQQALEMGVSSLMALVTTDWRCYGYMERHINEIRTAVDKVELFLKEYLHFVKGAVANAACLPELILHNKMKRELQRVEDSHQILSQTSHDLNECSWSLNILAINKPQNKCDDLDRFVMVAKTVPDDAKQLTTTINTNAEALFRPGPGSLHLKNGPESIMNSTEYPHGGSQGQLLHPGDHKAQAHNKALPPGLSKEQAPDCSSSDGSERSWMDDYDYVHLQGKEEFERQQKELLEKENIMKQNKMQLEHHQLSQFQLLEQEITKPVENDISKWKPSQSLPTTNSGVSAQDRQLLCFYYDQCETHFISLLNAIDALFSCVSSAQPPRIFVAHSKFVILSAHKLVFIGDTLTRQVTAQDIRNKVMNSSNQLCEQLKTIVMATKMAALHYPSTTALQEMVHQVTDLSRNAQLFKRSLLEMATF
Description: pull-down.

The target of a further test is GST-APC10 (UniProt Q9UM13 1-185). Description: pull-down.
GST-APC10, sequence (Q9UM13 whole entry): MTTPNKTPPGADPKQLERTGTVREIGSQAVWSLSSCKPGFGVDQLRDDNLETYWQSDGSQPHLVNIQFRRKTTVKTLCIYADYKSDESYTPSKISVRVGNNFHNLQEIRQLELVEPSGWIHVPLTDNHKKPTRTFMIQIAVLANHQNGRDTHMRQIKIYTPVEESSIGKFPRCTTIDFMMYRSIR

B1: Flag-tagged Smad3 d6 (domain or fragment)
chain: MSSILPFTPPIVKRLLGWKKGEQNGQEEKWCEKAVKSLVKKLKKTGQLDELEKAITTQNVNTKCITIPRSLDGRLQVSHRKGLPHVIYCRLWRWPDLHSHHELRAMELCEFAFNMKKDEVCVNPYHYQRVETPVLPPVLVPRHTEIPAEFPPLDDYSHSIPENTNFPAGIEPQSNIPETPPPGYLSEDGETSDHQMNHSMDAGSPNLSPNPMSPAHNNLDLQPVTYCEPAFWCSISYYELNQRVGETFHASQPSMTVDGFTDPSNSERFCLGLLSNVNRNAAVELTRRHIGRGVRLYYIGGEVFAECLSDSAIFVQSPNCNQRYGWHPA
Take B1: the results for the “percent of input protein bound (densitometry)” value (shortened to “percent of input protein bound”) in the test with GST-HEF1 and in the test with GST-APC10 were 23% and 34%, respectively.

B2: Flag-tagged Smad3 d2 (domain or fragment)
chain: MSSILPFTPPIVKRLLGWKKGEQNGQEEKWCEKAVKSLVKKLKKTGQLDELEKAITTQNVNTKCITIPRSLDGRLQVSHRKGLPHVIYCRLWRWPDLHSHHELRAMELCEFAFNMKKDEVCVNPYHYQRVETPVLPPVLVPRHTEIPAEFPPLDDYSHSIPENTNFPAGIEPQSNIPETPPPGYLSEDGETSDHQMNHSMDAGSPNLSPNPMSPAHNNLDLQPVTYCEPAFWCSISYYELNQRVGETFHASQPSMTVDGFTDPSNSERFCLGLLSNVNRNAAVELTRRHIGRGVRLYYIGGEVFAECLSDSAIFVQSPNCNQRYGWHPATVCKIPPGCNLKIFNNQEFAALLAQSVNQGFE
For the molecule B2, the “percent of input protein bound” value was determined as 21% in the test with GST-HEF1 and 95% with GST-APC10.

B3: Flag-tagged Smad3 d4 (domain or fragment)
chain: MSSILPFTPPIVKRLLGWKKGEQNGQEEKWCEKAVKSLVKKLKKTGQLDELEKAITTQNVNTKCITIPRSLDGRLQVSHRKGLPHVIYCRLWRWPDLHSHHELRAMELCEFAFNMKKDEVCVNPYHYQRVETPVLPPVLVPRHTEIPAEFPPLDDYSHSIPENTNFPAGIEPQSNIPETPPPGYLSEDGETSDHQMNHSMDAGSPNLSPNPMSPAHNNLDLQPVTYCEPAFWCSISYYELNQRVGETFHASQPSMTVDGFTDPSNSERFCLGLLSNVNRNAAVELTRRHIGRGVRLYYIG
Consider B3, for which the “percent of input protein bound” value worked out at 13% with GST-HEF1 and 17% with GST-APC10.

B4: Smad3/Smad1/Smad3 chimera (other)
chain: MSSILPFTPPIVKRLLGWKKGEQNGQEEKWCEKAVKSLVKKLKKTGQLDELEKAITTQNVNTKCITIPRSLDGRLQVSHRKGLPHVIYCRLWRWPDLHSHHELRAMELCEFAFNMKKDEVCVNPYHYQRVETPVLPPVLVPRHTEIPAEFPPLDDYSHSIPENTNFPAGIEPQSNIPETPPPGYLSEDGETSDHQMNHSMDAGSPNLSPNPMSPAHNNLDLQPVTYCEPAFWCSISYYELNNRVGEAFHASSTSVLVDGFTDPSNNKNRFCLGLLSNVVNRNAAVELTRRHIGRGVRLYYIGGEVFAECLSDSAIFVQSPNCNQRYGWHPATVCKIPPGCNLKIFNNQEFAALLAQSVNQGFEAVYQLTRMCTIRMSFVKGWGAEYRRQTVTSTPCWIELHLNGPLQWLDKVLTQMGSPSIRCSSV
Regarding B4, the “percent of input protein bound” value with GST-HEF1 stood at 24%; in the test with GST-APC10, 20%.

The values are drawn from PMC420458 (BMC Cell Biology, 2004).
